Positions count from the first letter of the chain named.
T1: Recombinant human OX40-His protein (human, UniProt P43489 29-214, limits assumed)
T1 construct: Recombinant antigen protein; also called recombinant human OX-40 protein; human OX-40 protein; not shown: His tag
T1 sequence (looked up): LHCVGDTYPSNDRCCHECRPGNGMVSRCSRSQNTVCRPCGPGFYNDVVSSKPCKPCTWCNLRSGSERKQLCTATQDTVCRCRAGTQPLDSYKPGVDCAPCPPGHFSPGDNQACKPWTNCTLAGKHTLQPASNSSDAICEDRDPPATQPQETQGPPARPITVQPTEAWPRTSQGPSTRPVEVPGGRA

T2: Recombinant monkey OX-40 protein (monkey)
T2 chain: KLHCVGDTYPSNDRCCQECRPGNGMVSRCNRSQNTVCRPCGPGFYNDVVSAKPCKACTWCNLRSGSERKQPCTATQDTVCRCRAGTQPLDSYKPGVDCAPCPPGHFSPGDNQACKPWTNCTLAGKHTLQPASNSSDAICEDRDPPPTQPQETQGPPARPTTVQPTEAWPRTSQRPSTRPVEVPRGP

T3: OX40 on a functional cell line overexpressing OX40 (UniProt P43489 29-277, limits assumed)
T3 sequence (looked up): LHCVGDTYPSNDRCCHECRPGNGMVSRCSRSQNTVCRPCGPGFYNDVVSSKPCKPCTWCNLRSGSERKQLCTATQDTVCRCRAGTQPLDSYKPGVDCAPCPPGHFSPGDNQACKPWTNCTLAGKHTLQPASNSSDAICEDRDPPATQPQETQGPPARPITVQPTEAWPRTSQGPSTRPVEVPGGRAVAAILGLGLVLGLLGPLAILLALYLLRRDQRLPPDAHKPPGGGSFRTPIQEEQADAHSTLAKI

B1: AH02906 humanized anti-human OX40 monoclonal antibody (recombinant human IgG1/kappa) (antibody, V domains shown)
VH: QVQLVQSGAEVKKPGASVKVSCKASGYTFTDYSMHWVKQAPGQGLEWMGWISTETGEPTYADDFKGRFTITLDTSASTAYMELSSLRSEDTAVYYCARVRPWYLAVWGQGTLVTVSS
VL: DIQMTQSPSSLSASVGDRVTITCRASQDISNYLNWYQQKPGKAPKLLIYYTSRLYSGVPSRFSGSGSGTDYTLTISSLQPEDIATYFCQQANTLPLTFGGGTKLEIK
B2: AH02919 humanized anti-human OX40 monoclonal antibody (recombinant human IgG1/kappa) (antibody, V domains shown)
VH: B1 VH with F68V, L72R, M81L, L83I, Y95F
VL: B1 VL with P44V, F87Y
B3: AH02921 humanized anti-human OX40 monoclonal antibody (recombinant human IgG1/kappa) (antibody, V domains shown)
VH: B1 VH with A9P, K38R, M81L, L83I, Y95F, A105T
VL: B1 VL
B4: AH02922 humanized anti-human OX40 monoclonal antibody (recombinant human IgG1/kappa) (antibody, V domains shown)
VH: B1 VH with V20I, K38R, G44R, F68V, L72R, A105V
VL: B1 VL with F87Y
B5: AH02913 humanized anti-human OX40 monoclonal antibody (recombinant human IgG1/kappa) (antibody, V domains shown)
VH: B1 VH with A9P, F68V, Y95F
VL: B1 VL with P44V, L73F
B6: AH02917 humanized anti-human OX40 monoclonal antibody (recombinant human IgG1/kappa) (antibody, V domains shown)
VH: B1 VH with Y95F
VL: B1 VL with P44V, Y71F, F87Y
B7: AH02915 humanized anti-human OX40 monoclonal antibody (recombinant human IgG1/kappa) (antibody, V domains shown)
VH: B1 VH with F68V, M81L, L83I
VL: B1 VL with Y71F
B8: AH02925 humanized anti-human OX40 monoclonal antibody (recombinant human IgG1/kappa) (antibody, V domains shown)
VH: B1 VH with F68V, L72R, M81L, L83I, Y95F
VL: B1 VL with P44V, Y71F, F87Y
B9: AH02916 humanized anti-human OX40 monoclonal antibody (recombinant human IgG1/kappa) (antibody, V domains shown)
VH: B1 VH with F68V
VL: B1 VL with P44V, L73F
B10: Chimeric antibody (anti-human OX40, recombinant, human IgG1/kappa constant regions) (antibody, V domains shown)
VH: QIQLVQSGPELKKPGETVKISCKASGYTFTDYSMHWVKQAPGKGLKWMGWISTETGEPTYADDFKGRFAFSLETSASTAYLQIKNLKNEDTASYFCARVRPWYLAVWGAGTTVTVSS
VL: DIQMTQTTSSLSASLGDRVTISCRASQDISNYLNWYQQKPDGTVKLLIYYTSRLYSGVPSRFSGSGSGADYSLTVSNLEQEDIATYFCQQANTLPLTFGAGTKLELK
B11: AH02906, prokaryotically expressed antibody product (back-mutation screening) (Fab, V domains shown)
VH: B1 VH
VL: B1 VL
B12: AH02913, prokaryotically expressed antibody product (back-mutation screening) (Fab, V domains shown)
VH: B1 VH with A9P, F68V, Y95F
VL: B1 VL with P44V, L73F
B13: AH02925, prokaryotically expressed antibody product (back-mutation screening) (Fab, V domains shown)
VH: B1 VH with F68V, L72R, M81L, L83I, Y95F
VL: B1 VL with P44V, Y71F, F87Y
B14: AH02923, prokaryotically expressed antibody product (back-mutation screening) (Fab, V domains shown)
VH: B1 VH with K38R, I70F, M81L
VL: B1 VL with P44V, L73F, F87Y
B15: AH02919, prokaryotically expressed antibody product (back-mutation screening) (Fab, V domains shown)
VH: B1 VH with F68V, L72R, M81L, L83I, Y95F
VL: B1 VL with P44V, F87Y
B16: AH02922, prokaryotically expressed antibody product (back-mutation screening) (Fab, V domains shown)
VH: B1 VH with V20I, K38R, G44R, F68V, L72R, A105V
VL: B1 VL with F87Y
B17: AH02916, prokaryotically expressed antibody product (back-mutation screening) (Fab, V domains shown)
VH: B1 VH with F68V
VL: B1 VL with P44V, L73F
B18: AH02915, prokaryotically expressed antibody product (back-mutation screening) (Fab, V domains shown)
VH: B1 VH with F68V, M81L, L83I
VL: B1 VL with Y71F
B19: AH02917, prokaryotically expressed antibody product (back-mutation screening) (Fab, V domains shown)
VH: B1 VH with Y95F
VL: B1 VL with P44V, Y71F, F87Y
B20: AH02921, prokaryotically expressed antibody product (back-mutation screening) (Fab, V domains shown)
VH: B1 VH with A9P, K38R, M81L, L83I, Y95F, A105T
VL: B1 VL

molecular target: T1, Recombinant human OX40-His protein; assay: SPR (Biacore 8K), OX40-HIS coupled to chip, antibody as analyte, 1:1 binding model
Description: The chip surface was equilibrated with HBS-EP buffer at a flow rate of 10 μl/min for 5 min, and then a 1:1 mixture of “NHS+EDC” was injected at a flow rate of 10 μl/min for 100 sec to activate the chip. The antigen protein (OX40-HIS) diluted in 10 mM sodium acetate buffer was injected for about 180 sec at a flow rate of 10 μl/min for coupling, and finally ethanolamine was injected for 200 sec at a flow rate of 10 μl/min to block the surface.
Three pre-cycles were performed with the HBS-EP buffer as a sample to balance the chip to stabilize the baseline. A low concentration of antibody was injected at a flow rate of 30 μl/min for 200 sec, to allow the antigen to bind to the antibody, and then the buffer was injected at a flow rate of 30 μl/min for 400 sec for dissociation. 10 mM Gly-HCl pH2.0 was injected three times each for 30 sec at a flow rate of 30 μl/min for regeneration, to complete one cycle.
The antibody concentration was changed to carry out the cycle for measurement at a next gradient concentration until all gradient concentrations (2.5 nM, 5 nM, 10 nM, 20 nM, 40 nM, and […]) and the replicate (such as 20 nM) were tested. The experimental data was double subtracted (minus the background values of the control channel and zero concentration), and fitted to the “1:1 binding” model in the Biacore 8K evaluation software. Biacore 8K was used to determine the affinity of the antibody to the OX40-HIS recombinant protein.

Row | Kd [nM] | koff [s⁻¹] | kon [M⁻¹ s⁻¹] | Binder
1 | 2.83 | 0.00116 | 408000 | B1
2 | 2.09 | 0.000776 | 372000 | B2
3 | 1.34 | 0.000439 | 327000 | B3
4 | 1.36 | 0.00029 | 213000 | B4
5 | 1.76 | 0.00067 | 381000 | B5
6 | 2.6 | 0.00106 | 407000 | B6
7 | 3 | 0.00142 | 472000 | B7
8 | 2.22 | 0.00115 | 520000 | B8
9 | 2.46 | 0.000659 | 268000 | B9
10 | 2.4 | 0.000814 | 339000 | B10

molecular target: T1, Recombinant human OX40-His protein; assay: ELISA, plate coated with recombinant human OX-40 protein, antibody titrated
Description: Recombinant human OX-40 protein and recombinant monkey OX-40 protein were respectively used to detect the cross-recognition ability of humanized monoclonal antibodies for human/monkey OX-40 protein.
The ELISA plate (Nunc) was coated with 100 μl/well of […] recombinant OX40-His protein in PBS at 4° C. overnight. The plate was washed with PBS-T (0.05% Tween) and blocked with 200 μl/well of PBST containing 1% BSA at 37° C. for 0.5 hr. Then the blocking buffer was discarded, 100 μl of 1000 ng/ml purified antibody was added to the first well, 3-fold serial dilutions were made, and a total of 11 test concentration gradients were given. Then the system was incubated for 1 hr at room temperature. The plate was washed three times with PBST and incubated with 100 μl/well of horseradish peroxidase-conjugated goat anti-human Fab fragment-IgG (Fab-specific) (GenScript) at 37° C. for 0.5 hr. The plate was washed 5 times with PBST, and then a TMB developing solution (GenScript) was added and incubated at room temperature for 15 min in the dark. The reaction was terminated by adding 50 μl of 1 M HCl stop solution (Sigma). The plate was read at 450 nm on a microplate reader.

Row | EC50 [µg/mL] | Binder
11 | 0.0143 | B2
12 | 0.0161 | B3
13 | 0.0161 | B5
14 | 0.0131 | B9
15 | 0.0138 | B10

Molecular target: T2, Recombinant monkey OX-40 protein
Assay: ELISA, plate coated with recombinant monkey OX-40 protein, antibody titrated

Row | EC50 [µg/mL] | Binder
16 | 0.0391 | B2
17 | 0.0376 | B3
18 | 0.0353 | B5
19 | 0.0323 | B9
20 | 0.0618 | B10

molecular target: T1, Recombinant human OX40-His protein; assay: kinetic ranking (RU, 1:1 binding model), prokaryotically expressed antibody product as ligand, OX40-His as analyte

Row | Kd [nM] | koff [s⁻¹] | kon [M⁻¹ s⁻¹] | Binder
21 | 15.6 | 0.00511 | 328000 | B11
22 | 12.5 | 0.00425 | 339000 | B12
23 | 14.9 | 0.00439 | 295000 | B13
24 | 10.8 | 0.00344 | 317000 | B14
25 | 15.1 | 0.00505 | 335000 | B15
26 | 2.37 | 0.000534 | 225000 | B16
27 | 15.7 | 0.00384 | 245000 | B17
28 | 14.3 | 0.00307 | 215000 | B18
29 | 13.7 | 0.00396 | 288000 | B19
30 | 3.35 | 0.0013 | 388000 | B20

molecular target: T3, OX40 on a functional cell line …; assay: cell-based or functional assay

Row | IL-8 secretion by OX40 overexpressing functional cell line, EC50 [nM] | IL-8 secretion by OX40 overexpressing functional cell line, best-fit value Bottom | IL-8 secretion by OX40 overexpressing functional cell line, best-fit value LogEC50 | IL-8 secretion by OX40 overexpressing functional cell line, best-fit value Top | Binder
31 | 1.03 | 3060 | 0.0123 | 19000 | B2
32 | 2.14 | 4420 | 0.329 | 19500 | B3
33 | 1.62 | 3950 | 0.209 | 24200 | B5
34 | 3 | 3590 | 0.476 | 24600 | B9
